For 1 molecule, IC50 results are on record in patent US20160039921A1 (published 2016).

A value given as a limit tells only on which side of the number the result lay.

The target of the experiment is T1, recombinant human VEGF165 protein (human, UniProt P15692 27-191).
T1 chain: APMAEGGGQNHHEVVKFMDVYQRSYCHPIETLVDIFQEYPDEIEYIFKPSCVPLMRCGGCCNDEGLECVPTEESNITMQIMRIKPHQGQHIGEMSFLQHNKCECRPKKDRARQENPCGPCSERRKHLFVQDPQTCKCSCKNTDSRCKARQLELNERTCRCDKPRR
As to the kind of experiment: competitive ELISA (blocking of biotin-VEGF binding to VEGFR1).

B1: murine PV19 monoclonal antibody (antibody, V domains shown)
VH: QPGGAFWMCVSGGKVTISCKASGYSFTNSGINWVKQAPGKGLKWMGWINTYTGEPTYADDFKGRFAFSLETSASSAYLQINNLKNEDTATYFCARFGDGYYWFFDVWGAGTTVTVS
VL: DIVMSQSPSSLAVSAGEKVTLSCKSSQSLLNSRTRKNFLAWYQQKPGQSPKLLIYWASTRESGVPDRFTGSGSGTDFTLTISSVQAEDLAVYYCKQSYNLYTFGGGPT
The term IC50 denotes the midpoint of a concentration-inhibition curve. For the molecule B1, the IC50 was less than 1 nM.
